Source: the supplement of paper PMC9112550, “Optimization of the antimicrobial peptide Bac7 by deep mutational scanning” (BMC Biology, 2022)

System: Escherichia coli TOP10
Assay: shrunken log2 fold change of peptide-encoding DNA abundance (4.5 h post-induction vs induction); higher = less antimicrobial activity (less host growth inhibition)
Conditions: time post-induction: 4.5 h; library: site-saturation at positions 5, 18, 19, 20
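Note: peptides expressed intracellularly from a pBAD plasmid library in pooled LB shake-flask culture, induced with 0.3% L-arabinose, DNA abundance read by NGS, three biological replicates, DESeq2 with apeglm shrinkage.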

RRIRARPPRLPRPRPRPMHLPRP
shrunken log2 fold change: -0.00822

RRIRYRPPRLPRPRPRPSKIPRP
shrunken log2 fold change: -0.502

RRIRNRPPRLPRPRPRPKKDPRP
shrunken log2 fold change: 0.0489

RRIRQRPPRLPRPRPRPWCFPRP
shrunken log2 fold change: -0.263

RRIRTRPPRLPRPRPRPMFEPRP
shrunken log2 fold change: -0.171

RRIRGRPPRLPRPRPRPCCWPRP
shrunken log2 fold change: 0.878

RRIRWRPPRLPRPRPRPWNYPRP
shrunken log2 fold change: -0.98

RRIRVRPPRLPRPRPRPAGVPRP
shrunken log2 fold change: 0.283

RRIRRRPPRLPRPRPRPHETPRP
shrunken log2 fold change: 1.07

RRIRARPPRLPRPRPRPYKHPRP
shrunken log2 fold change: -0.881

RRIRERPPRLPRPRPRPCRKPRP
shrunken log2 fold change: -0.103

RRIRGRPPRLPRPRPRPFGSPRP
shrunken log2 fold change: 0.081

RRIRNRPPRLPRPRPRPVKAPRP
shrunken log2 fold change: -0.0518

RRIRCRPPRLPRPRPRPDEIPRP
shrunken log2 fold change: 0.146

RRIRHRPPRLPRPRPRPTFRPRP
shrunken log2 fold change: 0.0997

RRIRTRPPRLPRPRPRPFEHPRP
shrunken log2 fold change: -0.32

RRIRWRPPRLPRPRPRPESYPRP
shrunken log2 fold change: -0.134

RRIRARPPRLPRPRPRPAHQPRP
shrunken log2 fold change: 0.568

RRIRKRPPRLPRPRPRPRAPPRP
shrunken log2 fold change: 0.538

RRIRDRPPRLPRPRPRPRRRPRP
shrunken log2 fold change: 0.736

RRIRQRPPRLPRPRPRPPQRPRP
shrunken log2 fold change: 0.655

RRIRCRPPRLPRPRPRPNLWPRP
shrunken log2 fold change: 0.00489

RRIRWRPPRLPRPRPRPQDDPRP
shrunken log2 fold change: 0.0379

RRIRPRPPRLPRPRPRPQTWPRP
shrunken log2 fold change: -0.254

RRIRKRPPRLPRPRPRPNIQPRP
shrunken log2 fold change: -0.0271

RRIRGRPPRLPRPRPRPEPNPRP
shrunken log2 fold change: 1.42

RRIRCRPPRLPRPRPRPCIEPRP
shrunken log2 fold change: -0.453

RRIRNRPPRLPRPRPRPLMIPRP
shrunken log2 fold change: -0.0419

RRIRKRPPRLPRPRPRPKQDPRP
shrunken log2 fold change: 0.119

RRIRPRPPRLPRPRPRPLKKPRP
shrunken log2 fold change: 0.295

RRIRQRPPRLPRPRPRPSPNPRP
shrunken log2 fold change: 0.16

RRIRMRPPRLPRPRPRPTTEPRP
shrunken log2 fold change: 0.897

RRIRWRPPRLPRPRPRPKMVPRP
shrunken log2 fold change: 0.295

RRIRVRPPRLPRPRPRPEHPPRP
shrunken log2 fold change: 0.0168

RRIRFRPPRLPRPRPRPKRLPRP
shrunken log2 fold change: 0.0144

RRIRVRPPRLPRPRPRPWNRPRP
shrunken log2 fold change: -0.183

RRIRRRPPRLPRPRPRPMFDPRP
shrunken log2 fold change: 0.195

RRIRQRPPRLPRPRPRPFLVPRP
shrunken log2 fold change: 0.000414

RRIRIRPPRLPRPRPRPTFEPRP
shrunken log2 fold change: 0.168

RRIRRRPPRLPRPRPRPKVRPRP
shrunken log2 fold change: 0.111

RRIRERPPRLPRPRPRPFMTPRP
shrunken log2 fold change: -0.438

RRIRLRPPRLPRPRPRPNYVPRP
shrunken log2 fold change: -0.566

RRIRPRPPRLPRPRPRPDCNPRP
shrunken log2 fold change: -0.319

RRIRMRPPRLPRPRPRPDREPRP
shrunken log2 fold change: -0.00516

RRIRVRPPRLPRPRPRPNADPRP
shrunken log2 fold change: -0.00824

RRIRRRPPRLPRPRPRPTQRPRP
shrunken log2 fold change: 0.625

RRIRLRPPRLPRPRPRPKLIPRP
shrunken log2 fold change: -0.219

RRIRQRPPRLPRPRPRPPWKPRP
shrunken log2 fold change: 0.467

RRIRQRPPRLPRPRPRPEPYPRP
shrunken log2 fold change: 0.0808

RRIRVRPPRLPRPRPRPTMVPRP
shrunken log2 fold change: 0.0376

RRIRNRPPRLPRPRPRPEEVPRP
shrunken log2 fold change: -0.00192

RRIRVRPPRLPRPRPRPCDVPRP
shrunken log2 fold change: 0.0119

RRIRMRPPRLPRPRPRPYWPPRP
shrunken log2 fold change: -0.311

RRIRQRPPRLPRPRPRPFPQPRP
shrunken log2 fold change: -0.0621

RRIRRRPPRLPRPRPRPWGIPRP
shrunken log2 fold change: -0.24

RRIRLRPPRLPRPRPRPYGWPRP
shrunken log2 fold change: -0.265

RRIRSRPPRLPRPRPRPMSRPRP
shrunken log2 fold change: 0.0278

RRIRVRPPRLPRPRPRPSPMPRP
shrunken log2 fold change: -0.261

RRIRRRPPRLPRPRPRPNYMPRP
shrunken log2 fold change: -0.605

RRIRLRPPRLPRPRPRPSGTPRP
shrunken log2 fold change: -0.114

RRIRRRPPRLPRPRPRPSNGPRP
shrunken log2 fold change: -0.296

RRIRFRPPRLPRPRPRPWYAPRP
shrunken log2 fold change: -0.791

RRIRSRPPRLPRPRPRPYQHPRP
shrunken log2 fold change: -0.934

RRIRWRPPRLPRPRPRPSLCPRP
shrunken log2 fold change: 0.384

RRIRSRPPRLPRPRPRPQYKPRP
shrunken log2 fold change: -0.464

RRIRNRPPRLPRPRPRPTYFPRP
shrunken log2 fold change: -0.147

RRIRCRPPRLPRPRPRPANNPRP
shrunken log2 fold change: -0.409

RRIRCRPPRLPRPRPRPFTDPRP
shrunken log2 fold change: -0.182

RRIRMRPPRLPRPRPRPRALPRP
shrunken log2 fold change: 2.22

RRIRQRPPRLPRPRPRPPKKPRP
shrunken log2 fold change: -0.0474

RRIRWRPPRLPRPRPRPLLTPRP
shrunken log2 fold change: 0.324

RRIRVRPPRLPRPRPRPTAVPRP
shrunken log2 fold change: 0.327

RRIRFRPPRLPRPRPRPAGKPRP
shrunken log2 fold change: 0.279

RRIRARPPRLPRPRPRPSDPPRP
shrunken log2 fold change: -0.0252

RRIRVRPPRLPRPRPRPMCHPRP
shrunken log2 fold change: -0.0674

RRIRWRPPRLPRPRPRPATYPRP
shrunken log2 fold change: 0.0311

RRIRNRPPRLPRPRPRPYWNPRP
shrunken log2 fold change: -0.108

RRIRYRPPRLPRPRPRPGYQPRP
shrunken log2 fold change: -0.241

RRIRDRPPRLPRPRPRPGPQPRP
shrunken log2 fold change: -0.0494

RRIRQRPPRLPRPRPRPPMGPRP
shrunken log2 fold change: 0.187

RRIRQRPPRLPRPRPRPQDQPRP
shrunken log2 fold change: -0.276

RRIRWRPPRLPRPRPRPVVFPRP
shrunken log2 fold change: 0.0685

RRIRMRPPRLPRPRPRPMIKPRP
shrunken log2 fold change: -0.262

RRIRQRPPRLPRPRPRPQVAPRP
shrunken log2 fold change: -0.156

RRIRGRPPRLPRPRPRPHIYPRP
shrunken log2 fold change: 0.0231

RRIRIRPPRLPRPRPRPSYKPRP
shrunken log2 fold change: -1.42

RRIRERPPRLPRPRPRPPAHPRP
shrunken log2 fold change: 0.269

RRIRHRPPRLPRPRPRPGMYPRP
shrunken log2 fold change: -0.298

RRIRKRPPRLPRPRPRPVEQPRP
shrunken log2 fold change: 0.12

RRIRSRPPRLPRPRPRPCCCPRP
shrunken log2 fold change: -0.000964

RRIRDRPPRLPRPRPRPAQIPRP
shrunken log2 fold change: 0.263

RRIRSRPPRLPRPRPRPTFRPRP
shrunken log2 fold change: -0.0691

RRIRDRPPRLPRPRPRPPCIPRP
shrunken log2 fold change: -0.264

RRIRCRPPRLPRPRPRPRSPPRP
shrunken log2 fold change: 0.636

RRIRERPPRLPRPRPRPPHVPRP
shrunken log2 fold change: -0.362

RRIRSRPPRLPRPRPRPAVHPRP
shrunken log2 fold change: 0.0588

RRIRSRPPRLPRPRPRPTKPPRP
shrunken log2 fold change: 0.196

RRIRMRPPRLPRPRPRPPKYPRP
shrunken log2 fold change: -0.0762

RRIRFRPPRLPRPRPRPYKSPRP
shrunken log2 fold change: -0.382

RRIRNRPPRLPRPRPRPMCLPRP
shrunken log2 fold change: -0.0215

RRIRDRPPRLPRPRPRPVWQPRP
shrunken log2 fold change: 0.63

RRIRDRPPRLPRPRPRPLWCPRP
shrunken log2 fold change: -0.15

RRIRMRPPRLPRPRPRPQGNPRP
shrunken log2 fold change: -0.0324

RRIRDRPPRLPRPRPRPCMIPRP
shrunken log2 fold change: 0.28

RRIRGRPPRLPRPRPRPPDDPRP
shrunken log2 fold change: 1.34

RRIRQRPPRLPRPRPRPYAVPRP
shrunken log2 fold change: -0.00389

RRIRYRPPRLPRPRPRPSQYPRP
shrunken log2 fold change: -0.209

RRIRIRPPRLPRPRPRPHNKPRP
shrunken log2 fold change: -0.976

RRIRFRPPRLPRPRPRPSIYPRP
shrunken log2 fold change: -0.615

RRIRKRPPRLPRPRPRPGAFPRP
shrunken log2 fold change: 0.369

RRIRVRPPRLPRPRPRPDINPRP
shrunken log2 fold change: -0.00784

RRIRVRPPRLPRPRPRPAEQPRP
shrunken log2 fold change: 0.247

RRIRDRPPRLPRPRPRPCVTPRP
shrunken log2 fold change: 0.163

RRIRMRPPRLPRPRPRPICWPRP
shrunken log2 fold change: 0.0409

RRIRERPPRLPRPRPRPKEVPRP
shrunken log2 fold change: -0.324

RRIRARPPRLPRPRPRPVVHPRP
shrunken log2 fold change: 0.297

RRIRIRPPRLPRPRPRPKHEPRP
shrunken log2 fold change: 0.0924

RRIRDRPPRLPRPRPRPYQTPRP
shrunken log2 fold change: -0.0929

RRIRQRPPRLPRPRPRPHLNPRP
shrunken log2 fold change: -0.29

RRIRQRPPRLPRPRPRPMTHPRP
shrunken log2 fold change: -0.466

RRIRLRPPRLPRPRPRPCFSPRP
shrunken log2 fold change: -0.112

RRIRERPPRLPRPRPRPPAVPRP
shrunken log2 fold change: 0.349

RRIRKRPPRLPRPRPRPNKQPRP
shrunken log2 fold change: -0.0316

RRIRFRPPRLPRPRPRPAQYPRP
shrunken log2 fold change: -0.574

RRIRMRPPRLPRPRPRPIMSPRP
shrunken log2 fold change: 0.0205
